Laboratory results from article PMC4904203.

What was measured:
[1] = molecular target: nTRIP6 fused to the C-terminal half of Venus (VC); test: split reporter (BiFC, NanoBiT); Venus BiFC: VN and VC fusions co-transfected into C2C12 myoblasts with mCherry as transfection control; confocal imaging 24 h after transfection; cells with Venus complementation counted as percent of mCherry-positive cells (mean ± SD, three experiments); for Fig. 6a cells were first transfected with Trip6 siRNA or control siRNA; details: scale: %
[2] = molecular target: MEF2C fused to the C-terminal half of Venus (VC) (UniProt Q8CFN5); test: as above
Chain of UniProt Q8CFN5 (Q8CFN5 whole entry, the tested form may be a part): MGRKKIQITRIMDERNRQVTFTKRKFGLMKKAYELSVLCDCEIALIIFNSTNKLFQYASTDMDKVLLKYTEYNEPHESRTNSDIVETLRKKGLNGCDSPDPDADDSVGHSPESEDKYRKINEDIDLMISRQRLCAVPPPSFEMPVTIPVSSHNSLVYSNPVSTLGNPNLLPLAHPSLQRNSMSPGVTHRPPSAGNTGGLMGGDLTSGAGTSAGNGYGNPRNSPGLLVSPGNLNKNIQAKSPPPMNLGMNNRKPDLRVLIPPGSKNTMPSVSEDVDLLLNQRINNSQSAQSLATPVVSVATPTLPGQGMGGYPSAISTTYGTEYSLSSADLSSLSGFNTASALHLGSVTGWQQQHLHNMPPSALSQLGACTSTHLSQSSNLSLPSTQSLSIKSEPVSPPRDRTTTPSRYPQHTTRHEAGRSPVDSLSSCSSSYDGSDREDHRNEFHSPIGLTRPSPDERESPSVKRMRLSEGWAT

Row | Substance | percent of transfected cells with Venus complementation [1] | percent of transfected cells with Venus complementation [2] [%]
1 | HDAC5-Flag fused to the N-terminal half of Venus (VN) (from UniProt Q9UQL6 1-1122) (enzyme) | 79.5 | –
2 | nTRIP6 lacking the LIM domains (pre-LIM) fused to VN (domain or fragment) | – | 65.5
3 | nTRIP6 (nuclear isoform of TRIP6) fused to the N-terminal half of Venus (VN) (natural protein) | – | 70.6
